Source: patent US8530621B2, “Combined preparation of a thiazide diuretic and a loop diuretic” (The Regents of the University of California, priority 2007, dated 2013)
Changes are numbered by the printed parent chain. In names and notes the source's numbering stands.

B1: L325R: HA-tagged mouse talin F23 (residues 206-405) mutant L325R expressed by transfection (protein, UniProt P26039 206-405, looked up, variant L325R)
chain: SRDPVQLNLLYVQARDDILNGSHPVSFDKACEFAGFQCQIQFGPHNEQKHKAGFLDLKDFLPKEYVKQKGERKIFQAHKNCGQMSEIEAKVRYVKLARSLKTYGVSFFLVKEKMKGKNKRVPRLLGITKECVMRVDEKTKEVIQEWSLTNIKRWAASPKSFTLDFGDYQDGYYSVQTTEGEQIAQLIAGYIDIILKKKKS
modifications: F2-F3 subdomains HA tag
notes: HA-tagged mouse talin F23 (residues 206-405) mutant L325R expressed by transfection
B2: F23(W359A): talin F23 mutant W359A that strongly inhibits the MD binding site (protein)
chain: B1 chain with R120L, W154A
modifications: left off: small tags and cut ends
B3: Q381V: HA-tagged mouse talin F23 (residues 206-405) mutant Q381V expressed by transfection (protein, UniProt P26039 206-405, looked up, variant Q381V)
chain: B1 chain with R120L, Q176V
modifications: F2-F3 subdomains HA tag
notes: HA-tagged mouse talin F23 (residues 206-405) mutant Q381V expressed by transfection
B4: S379R: HA-tagged mouse talin F23 (residues 206-405) mutant S379R expressed by transfection (protein, UniProt P26039 206-405, looked up, variant S379R)
chain: B1 chain with R120L, S174R
modifications: F2-F3 subdomains HA tag
notes: HA-tagged mouse talin F23 (residues 206-405) mutant S379R expressed by transfection
B5: S365D: HA-tagged mouse talin F23 (residues 206-405) mutant S365D expressed by transfection (protein, UniProt P26039 206-405, looked up, variant S365D)
chain: B1 chain with R120L, S160D
modifications: F2-F3 subdomains HA tag
notes: HA-tagged mouse talin F23 (residues 206-405) mutant S365D expressed by transfection
B6: wild type F23: F2 and F3 sub-domains (F23) of talin, residues 206-405, wild type (protein, UniProt P26039 206-405, looked up, fragment)
chain: B1 chain with R120L
modifications: F2-F3 subdomains
notes: F2 and F3 sub-domains (F23) of talin, residues 206-405, wild type
B7: DOK1: PTB-containing protein, full-length DOK1, transfected into αβPy cells (protein)
chain: MDGAVMEGPLFLQSQRFGTKRWRKTWAVLYPASPHGVARLEFFDHKGSSSGGGRGSSRRLDCKVIRLAECVSVAPVTVETPPEPGATAFRLDTAQRSHLLAADAPSSAAWVQTLCRNAFPKGSWTLAPTDNPPKLSALEMLENSLYSPTWEGSQFWVTVQRTEAAERCGLHGSYVLRVEAERLTLLTVGAQSQILEPLLSWPYTLLRRYGRDKVMFSFEAGRRCPSGPGTFTFQTAQGNDIFQAVETAIHRQKAQGKAGQGHDVLRADSHEGEVAEGKLPSPPGPQELLDSPPALYAEPLDSLRIAPCPSQDSLYSDPLDSTSAQAGEGVQRKKPLYWDLYEHAQQQLLKAKLTDPKEDPIYDEPEGLAPVPPQGLYDLPREPKDAWWCQARVKEEGYELPYNPATDDYAVPPPRSTKPLLAPKPQGPAFPEPGTATGSGIKSHNSALYSQVQKSGASGSWDCGLSRVGTDKTGVKSEGST

What was measured:
integrin αIIbβ3 = target: T1, integrin αIIbβ3 (Homo sapiens, UniProt P05106+P08514); assay: PAC1 binding by flow cytometry in A5 cells transfected with talin F23; assay type: cell-based; conditions: CHO cells stably expressing WT human αIIbβ3 (A5 cells), transient transfection with HA-talin F23
T1 construct: expressed in transfected cells; host or cells: CHO (A5 cells)
Excerpt: (§1) A-B. CHO cells were transiently transfected with plasmids encoding αIIb and β3, or mutants thereof. In some samples (indicated above) a plasmid encoding a shRNA for talin-1 (Tadokoro et. al. 2003) or a control shRNA was co-transfected with the integrin plasmids. Cells were double stained for integrin αIIbβ3 expression (B-D57) and activated αIIbβ3 (PAC1) and flow cytometry was used to measure the geometric mean fluorescence intensity (F) of PAC1 binding. Non-specific PAC1 binding (F0) was measured in the presence of a competitive antagonist of αIIbβ3, Ro43-5054 and maximal binding (Fmax) was measured in the presence of the activating antibody Anti-LIBS6. Activation index was defined as 100*(F−F0)/(Fmax−F0) (see Experimental Procedures). A. Activation of αIIb(R995A)β3 integrin was diminished in the cells co-transfected with talin-1 knockdown shRNA. Similarly, the β3(Y747A) mutation blocks talin binding to the MD site and the αIIb(R995A)β3(Y747A) integrin is not activated. B. Talin-mediated activation requires specific contacts between talin F3 and the β3 MP region. Depicted is the Activation Index (gray bars) or the αIIbβ3 expression, indicated as fluorescence intensity of D57 staining (black bars). The activating effect of αIIb(R995A) is diminished when it is paired with the β3 MP mutants β3(F727A) or β3(F730A). C-D. CHO cells stably expressing WT human αIIbβ3 (A5 cells), or a high-affinity chimeric integrin (αβPy cells), were transiently co-transfected with vectors for WT or mutant HA-tagged talin F23 and eGFP protein as a transfection marker. PAC1 binding was measured by flow cytometry in the subset of cells expressing GFP. Insets show representative western blots of cell lysates probed with anti-HA antibody and indicate that WT and mutant HA-talin F23 expressed to similar levels. C. Specific PAC1 binding in αIIbβ3-expressing A5 cells transfected with talin F23 mutants relative to that in cells transfected with wild type talinF23 (set as 100). […] D. PAC1 binding in αIIbα6β3β1-expressing αβPy cells transfected with talin F23 or its mutants relative to that in cells transfected with empty vector (set as 100). The MP-contacting talin F23 mutants (L325R, S365D, S379R, Q381V) inhibited activation, whereas the MD-contacting mutant talin F23(W359A) had no significant effect on activation levels. All data are an average of three of more measurements, error bars are standard deviations.
Contacts between talin and the MP region of the β3 cytoplasmic tail may constitute an interaction that is a key to the activation process. To test this concept, the effects of a number of designed mutations, both in the β3 tail and in the talin F3 sub-domain, were investigated. Integrin activation was assessed using the antibody PAC1 and flow cytometry as previously described (Partridge et al., 2005).
For experiments to assess the functional effect of point mutants in the β3 tail, CHO cells were co-transfected with pCDM8 plasmids coding for wildtype or mutant sequences of […] and β3. Transfection was done using the plus reagent and lipofectamine (Life Technologies); 24 hours later cells were stained with B-D57 and PAC1 in the presence and absence of Ro43-5054 or Anti-LIBS6. The biotinylated monoclonal antibody, B-D57 was used to detect expression of αIIbβ3, while PAC1, an activation specific, monoclonal IgM antibody was used to assess the activation state of the αIIbβ3 integrin. This antibody is an authentic ligand for integrin αIIbβ3 (Abrams et al., 1994) and its binding correlates with the binding of natural ligands, such as fibrinogen (Shattil et al., 1985). Cells were analyzed on a FACScan using both B-D57 and PAC1 antibodies as described previously (Partridge et al., 2005). The geometric mean fluorescence intensity (MFI) of PAC1 staining in the presence of Ro43-5054 (2 μM) was used to estimate non-specific PAC1 binding (F0). […]

[1] = tested on: αIIbα6β3β1 high-affinity chimeric integrin (αβPy cells); assay: PAC1 binding by flow cytometry in αβPy cells transfected with talin F23 or DOK1; assay type: cell-based; conditions: talin-dependent constitutively active chimeric integrin, transient transfection
Excerpt: as §1
A. CHO cells stably expressing a high-affinity chimeric integrin (αβPy cells) were transiently co-transfected with empty vector (pCDNA3.1), WT talin F23 or full-length DOK1; eGFP protein was used as a transfection marker. The level of integrin activation was measured by flow cytometry of harvested cells using PAC1 antibody as described in the legend to FIG. 3. Data are an average of three or more measurements; error bars are standard deviations. B. Overlay of the DOK and talin PTB domains. The critical differences between the two domains are the residues between strands S1 and S2. C. Weighted shift map (see Experimental Procedures) obtained by observing ^1H-^15N HSQC spectra on addition of the β3/PIPKIα peptide to the DOK PTB domain (10:1 molar ratio). Grey columns indicate residues whose peaks experienced severe line broadening in the bound state and could not be assigned.
To investigate this possibility we used αβPy cells, a CHO cell-line expressing a talin-dependent constitutively active chimeric integrin composed of the extracellular and transmembrane domains of αIIbβ3 and the cytoplasmic tails of α6β1 (Baker et al., 1997). We transiently transfected αβPy cells with cDNAs encoding the mutant F23 constructs (L325R, S365D, S379R, or Q381V).
For experiments to assess the functional effect of point mutants in the β3 tail, CHO cells were co-transfected with pCDM8 plasmids coding for wildtype or mutant sequences of βIIb and β3. […]

Molecule	integrin αIIbβ3 activation (PAC1 binding) (integrin αIIbβ3)	integrin activation (PAC1 binding) [1]
B1	diminished the ability of F23 to activate integrin αIIbβ3	blocked integrin activation
B2	prevent activation	had no effect on activation
B3	diminished the ability of F23 to activate integrin αIIbβ3	blocked integrin activation
B4	diminished the ability of F23 to activate integrin αIIbβ3	blocked integrin activation
B5	diminished the ability of F23 to activate integrin αIIbβ3	blocked integrin activation
B6	activated the integrin	modestly increased activation
B7	–	inhibited integrin activation
